Data: US7740850B2, “PDGFRβ-specific antibodies” (ImClone, LLC, priority 2007, dated 2010)

B1: 1B3: human anti-mouse PDGFRβ antibody from Fab phage display library, human κ/γ1 constant regions; SEQ ID NOS in Table 1 (antibody, listed as Homo sapiens, V domains shown)
VH: QVQLQESGGGLVKPGGSLRLSCAASGFTFSSYSMNWVRQAPGKGLEWVSSISSSSSYIYYADSVKGRFTISRDNSKNTLYLQMNSLRAEDTAVYYCAKGGRPLLVFDFWGQGTLVTVS
VL: EIVMTQSPGTLSLSPGERATLSCRASQSVSSSYLAWYQQKPGQAPRLLIYDASKRATGIPARFSGSGSGTDFTLTISTLESEDSAVYYCQQRGYWPPITFGQGTRLEIKR
modifications: human kappa/gamma1 constant regions
B2: 2C5: PDGFRβ-specific human antibody binding both human and murine PDGFRβ; SEQ ID NOS in Table 1 (antibody, listed as Homo sapiens, V domains shown)
VH: QVQLVQSGAEVKKPGSSVKVSCKASGGTFSSYAISWVRQAPGQGLEWMGRIIPILGIANYAQKFQGRVTITADKSTSTAYMELSSLRSEDTAVYYCARDMGSRNYYYFYWGQGTLVTVSS
VL: EIVLTQSPATLSLSPGERATLSCRASQSVGRYLAWYQQKPGQAPRLLIYGASNRATGIPARFSGSGSGTDFTLTISSLEPEDFAVYYCQQRSNWPLTFGGGTKVEIK

Experiments:
mPDGFRβ = mPDGFRβ (Mus musculus, UniProt P05622); assay: Antibody affinity determination (BIAcore, surface plasmon resonance); assay type: binding
mPDGFRβ, sequence (P05622 32-1098): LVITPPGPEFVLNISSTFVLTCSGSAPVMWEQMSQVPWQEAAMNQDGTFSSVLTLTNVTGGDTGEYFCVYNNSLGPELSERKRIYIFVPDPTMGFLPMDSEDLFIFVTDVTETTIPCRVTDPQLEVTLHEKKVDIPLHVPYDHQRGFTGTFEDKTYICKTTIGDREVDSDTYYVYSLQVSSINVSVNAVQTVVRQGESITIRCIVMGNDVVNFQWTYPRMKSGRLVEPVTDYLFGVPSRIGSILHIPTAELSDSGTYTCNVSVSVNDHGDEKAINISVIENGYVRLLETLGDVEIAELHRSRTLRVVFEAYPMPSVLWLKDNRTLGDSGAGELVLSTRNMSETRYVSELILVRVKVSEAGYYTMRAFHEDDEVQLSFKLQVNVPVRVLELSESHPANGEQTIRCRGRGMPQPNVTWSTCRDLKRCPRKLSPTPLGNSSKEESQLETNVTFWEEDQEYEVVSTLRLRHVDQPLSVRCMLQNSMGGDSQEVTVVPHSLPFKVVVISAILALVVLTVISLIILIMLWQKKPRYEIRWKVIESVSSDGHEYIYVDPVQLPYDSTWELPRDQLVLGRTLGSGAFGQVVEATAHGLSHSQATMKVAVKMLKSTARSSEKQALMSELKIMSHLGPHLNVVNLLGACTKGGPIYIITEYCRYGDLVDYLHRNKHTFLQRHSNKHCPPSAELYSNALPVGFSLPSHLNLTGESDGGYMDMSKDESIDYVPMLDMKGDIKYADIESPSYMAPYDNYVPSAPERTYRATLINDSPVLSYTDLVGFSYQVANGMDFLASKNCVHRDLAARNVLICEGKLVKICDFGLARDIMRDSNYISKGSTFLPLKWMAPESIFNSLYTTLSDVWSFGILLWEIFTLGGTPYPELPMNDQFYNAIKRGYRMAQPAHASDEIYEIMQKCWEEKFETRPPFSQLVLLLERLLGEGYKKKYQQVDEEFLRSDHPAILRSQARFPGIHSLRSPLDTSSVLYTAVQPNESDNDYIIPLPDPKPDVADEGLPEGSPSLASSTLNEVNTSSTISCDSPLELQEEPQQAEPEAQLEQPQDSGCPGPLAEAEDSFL
Procedure: (§1) Antibody affinity determination. The binding kinetics of various Fab and IgG to mPDGFRβ were measured using a BIAcore 3000 biosensor (BIACORE, Inc., Uppsala, Sweden). Briefly, mPDGFRβ was immobilized onto a sensor chip and soluble antibodies were injected at concentrations ranging from 1.5 nM to 100 nM. Sensorgrams were obtained at each concentration and were evaluated using the program, BIA Evaluation 2.0. The affinity constant, Kd, was calculated from the ratio of dissociation rate (koff)/association rate (kon) (Lu, D. et al., 2002; Zhu, Z. et al., 1998; Loizos, N. et al., 2005).

[1] = test system: NCI-H460 lung carcinoma xenograft; assay type: in vivo; conditions: for Tumor Volume T/C %: NCI-H460 xenograft, monotherapy
Procedure: (§2) Six xenograft models, SK-OV-3, OV-CAR-8, BxPC-3, OV-CAR-5, Caki-1 and NCI-H460 (A to F, respectively) were used to examine the effects of 1B3 on xenograft tumors in athymic nude mice. Mice with established tumors (˜250-300 mm^3) were randomly grouped and treated with 1B3, normal human IgG, or saline by intraperitoneal injection twice weekly (except for BxPC-3 model where the mice were treated three times a week) at the dose indicated.
(§3) Subcutaneous xenografts of BxPC-3 (A) or 5×10^6 NCI-H460 (B) were established in female athymic (nu/nu) mice. When tumors reached ˜300-350 mm^3, mice were randomized and divided into four groups (n=12), and treated with USP saline, 40 mg/kg of 1B3, 40 mg/kg of DC101 or 40 mg/kg 1B3 plus 40 mg/kg DC101, three times a week.
(§4) Six human xenograft tumor models, including three ovarian carcinoma (SK-OV-3, OV-CAR-5 and OV-CAR-8), one pancreatic carcinoma (BxPC3), one lung carcinoma (NCI-H460), and one kidney carcinoma (Caki-1), were used to assess the antitumor activity of 1B3 in vivo. Athymic (nu/nu) mice (female, 7-8 weeks of age) were housed for 7-10 days before xenograft implantation. Each mouse was injected subcutaneously with 3-10×10^6 cells of SK-OV-3, OVCAR-5, OVCAR-8, Caki-1, BxPC3 or NCI-H460 tumor cells. When tumors reached approximately 250-300 mm^3, mice were randomized into groups of 10 to 12 animals each and treated by intraperitoneal injection, 2 to 3 times per week, with 1B3, DC101, or 1B3 in combination with DC101. Human IgG and/or USP saline were used as control groups. Tumor sizes and mouse body weight were measured twice a week. Tumor volume was calculated using the formula: π/6×(length×width^2), where length=longest diameter and width=diameter perpendicular to length. The ratio of average tumor volume in the treatment group versus that in the control group (T/C %) was calculated. Statistic analysis was performed by Student's t-test.
(§5) To study the antitumor effects of monotherapy with an anti-PDGFRβ antibody, mice were treated with 1B3, normal human IgG, or saline twice weekly by intraperitoneal injections. In SK-OV-3 model, tumor-bearing mice were given 1B3 at 6, 20, or 60 mg/kg dose.
(§6) Athymic nude mice bearing xenografted tumors of 300-350 mm^3 size were randomized and divided into four treatment groups (n=12/group), and were treated by intraperitoneal injections three times a week with saline, 1B3 (40 mg/kg), DC101 (40 mg/kg), or 1B3 (40 mg/kg) plus DC101 (40 mg/kg).
(§7) The five human xenograft tumor models described above (OVCAR-5 and OVCAR-8, BxPC3, NCI-H460, and Caki-1) were used to assess the antitumor activity of 2C5 in vivo.

[2] = test system: Akt and p44/42 MAP kinase in D122 cells; assay: PDGF-BB-stimulated downstream signaling (Western blot); assay type: cell-based, mouse
Excerpt: To study the downstream signaling, the cell lysate from the above treatment were resolved by a 4-12% NuPAGE Bis-Tris gel. Phosphorylated Akt and p44/42 mitogen-activated protein kinase (MAPK) were detected using an anti-phospho-Akt and an anti-phospho-p44/p42 MAPK and p44/p42 MAPK, respectively (eBioscience, San Diego, Calif.).

hPDGFRβ = hPDGFRβ (Homo sapiens, UniProt P09619); assay: Antibody affinity determination (BIAcore, surface plasmon resonance); assay type: binding; conditions: one experiment
hPDGFRβ, sequence (P09619 33-1106): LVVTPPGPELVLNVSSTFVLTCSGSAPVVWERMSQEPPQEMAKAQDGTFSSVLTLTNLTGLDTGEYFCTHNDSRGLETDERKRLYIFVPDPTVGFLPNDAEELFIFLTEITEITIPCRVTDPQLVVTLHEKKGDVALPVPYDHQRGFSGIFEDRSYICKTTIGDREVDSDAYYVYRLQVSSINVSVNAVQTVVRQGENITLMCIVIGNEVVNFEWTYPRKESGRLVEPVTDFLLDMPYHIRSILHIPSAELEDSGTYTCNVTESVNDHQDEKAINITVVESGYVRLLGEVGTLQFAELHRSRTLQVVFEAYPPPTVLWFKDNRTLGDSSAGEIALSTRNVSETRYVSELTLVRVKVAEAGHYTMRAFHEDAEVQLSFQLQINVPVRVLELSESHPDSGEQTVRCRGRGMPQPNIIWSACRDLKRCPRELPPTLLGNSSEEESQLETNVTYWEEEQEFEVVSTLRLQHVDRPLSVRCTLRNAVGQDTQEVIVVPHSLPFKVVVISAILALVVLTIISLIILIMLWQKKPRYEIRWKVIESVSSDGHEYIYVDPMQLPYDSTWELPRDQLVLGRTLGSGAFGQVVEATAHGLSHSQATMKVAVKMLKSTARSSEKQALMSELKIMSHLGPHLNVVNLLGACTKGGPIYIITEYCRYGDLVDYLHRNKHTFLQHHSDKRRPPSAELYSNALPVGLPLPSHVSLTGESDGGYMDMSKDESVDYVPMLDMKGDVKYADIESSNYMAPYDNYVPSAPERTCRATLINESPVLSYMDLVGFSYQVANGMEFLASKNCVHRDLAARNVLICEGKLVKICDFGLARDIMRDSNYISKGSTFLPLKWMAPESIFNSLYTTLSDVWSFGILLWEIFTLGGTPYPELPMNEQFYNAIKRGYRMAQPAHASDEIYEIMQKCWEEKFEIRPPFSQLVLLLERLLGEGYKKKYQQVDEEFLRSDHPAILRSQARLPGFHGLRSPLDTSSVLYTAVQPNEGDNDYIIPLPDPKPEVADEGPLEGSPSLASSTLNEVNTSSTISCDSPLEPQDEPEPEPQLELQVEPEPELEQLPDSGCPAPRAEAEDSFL
Procedure: as §1
As determined by BIAcore analysis, 2C5 binds to hPDGFRβ with similar binding characteristics as 1B3 binds to mPDGFRβ. […] However, whereas 1B3 binds to murine PDGFRβ but not human PDGFRβ, 2C5 binds to both proteins. (FIG. 6).

human PDGFRα = human PDGFRα (Homo sapiens, UniProt P16234); assay: Binding to PDGFRα
human PDGFRα, sequence (P16234 24-1089): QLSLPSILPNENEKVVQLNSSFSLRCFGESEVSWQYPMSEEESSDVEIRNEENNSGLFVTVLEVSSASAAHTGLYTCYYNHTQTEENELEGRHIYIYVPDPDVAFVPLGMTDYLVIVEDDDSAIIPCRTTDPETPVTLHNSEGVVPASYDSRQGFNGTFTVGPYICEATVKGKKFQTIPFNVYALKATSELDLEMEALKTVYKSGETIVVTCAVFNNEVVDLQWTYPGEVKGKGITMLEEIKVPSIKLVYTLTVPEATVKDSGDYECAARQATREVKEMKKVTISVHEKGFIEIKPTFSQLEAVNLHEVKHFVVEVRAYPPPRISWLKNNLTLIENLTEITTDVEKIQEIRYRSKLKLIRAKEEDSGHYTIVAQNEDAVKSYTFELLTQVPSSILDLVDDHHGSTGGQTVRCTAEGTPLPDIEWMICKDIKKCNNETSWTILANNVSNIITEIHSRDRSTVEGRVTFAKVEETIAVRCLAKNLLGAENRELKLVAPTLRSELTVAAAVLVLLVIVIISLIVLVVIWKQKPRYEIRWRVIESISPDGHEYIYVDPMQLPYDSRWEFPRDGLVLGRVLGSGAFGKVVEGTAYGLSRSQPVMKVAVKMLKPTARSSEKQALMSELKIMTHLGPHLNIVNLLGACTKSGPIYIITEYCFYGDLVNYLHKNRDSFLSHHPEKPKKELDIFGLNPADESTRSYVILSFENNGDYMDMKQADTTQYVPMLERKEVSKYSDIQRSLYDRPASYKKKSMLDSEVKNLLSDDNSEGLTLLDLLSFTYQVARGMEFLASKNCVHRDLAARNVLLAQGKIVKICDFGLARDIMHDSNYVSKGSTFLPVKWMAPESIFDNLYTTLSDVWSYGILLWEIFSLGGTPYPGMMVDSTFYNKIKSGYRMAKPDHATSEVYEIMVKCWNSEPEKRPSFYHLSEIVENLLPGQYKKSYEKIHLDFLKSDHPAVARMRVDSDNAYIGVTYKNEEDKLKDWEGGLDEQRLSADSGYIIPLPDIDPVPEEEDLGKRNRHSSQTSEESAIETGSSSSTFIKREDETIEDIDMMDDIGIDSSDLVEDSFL

[3] = test system: BxPC-3 pancreatic carcinoma xenograft; assay: Subcutaneous tumor xenograft model; assay type: in vivo, mouse; conditions: for Tumor Volume T/C %: BxPC3 xenograft, monotherapy
Procedure: as §2, §3, §4, §5, §6, §7

Molecule | increase of affinity for mPDGFRβ of IgG over its Fab form (mPDGFRβ; BIAcore) | T/C % on day 22 post treatment ([1]; NCI-H460, 40 mg/kg each antibody i.p. three times a week) [%] | tumor growth inhibition ([1]; NCI-H460, 60 mg/kg i.p. twice weekly) | Tumor Volume T/C % [1] [%] | inhibition of PDGF-BB-stimulated phosphorylation of Akt and p44/42 MAP kinase [2] | Kd (hPDGFRβ) [nM] | binding to human PDGFRα (human PDGFRα) | tumor regression, number of mice ([3]; BxPC3, 40 mg/kg each antibody i.p. three times a week) | antitumor activity ([3]; BxPC3, monotherapy 40 mg/kg i.p. three times a week) | Tumor Volume T/C % [3] [%] | Kd (mPDGFRβ; surface plasmon resonance, one experiment) [nM]
B1 | approximately 57 times | 66 | significantly slowed the growth | 60 | potently inhibited | 0.0417 | did not bind | no regressions | failed to show any antitumor activity | 100 | 
B2 |  |  |  | 60 | potently inhibited | 0.0136 | does not bind |  |  | 100 | 0.0605
